Results as given in US8138307 (CEDARS SINAI MEDICAL CENTER, dated 2012).

Assays:
[1] = biological target: T1, GAL4 activation domain-MP23a fusion (pGAD10 clone MP23a, partial synapsin-like protein) (human); test: yeast two-hybrid liquid assay (β-galactosidase)
T1 construct: Partial clone; also called SLP (MP23a)
T1 chain: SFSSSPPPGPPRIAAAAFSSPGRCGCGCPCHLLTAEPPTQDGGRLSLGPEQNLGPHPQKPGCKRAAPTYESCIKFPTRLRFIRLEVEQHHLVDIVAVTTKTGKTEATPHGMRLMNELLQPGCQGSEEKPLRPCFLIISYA

[2] = biological target: T2, GAL4 activation domain-MP36a fusion (pGAD10 clone MP36a) (UniProt P04386 768-881); test: yeast two-hybrid liquid assay (β-galactosidase)
T2 construct: Prey clone from a human brain cDNA library

B1: GAL4 binding domain-parkin(1-465) fusion encoded by pGBT9-parkin(1-465) (other, UniProt P04386 1-147, looked up)
chain: MKLLSSIEQACDICRLKKLKCSKEKPKCAKCLKNNWECRYSPKTKRSPLTRAHLTEVESRLERLEQLFLLIFPREDLDMILKMDSLQDIKALLTGLFVQDNVNKDAVTDRLASVETDMPLTLRQHRISATSSSEESSNKGQRQLTVSMIVFVRFNSSHGFPVEVDSDTSIFQLKEVVAKRQGVPADQLRVIFAGKELRNDWTVQNCDLDQQSIVHIVQRPWRKGQEMNATGGDDPRNAAGGCEREPQSLTRVDLSSSVLPGDSVGLAVILHTDSRKDSPPAGSPAGRSIYNSFYVYCKGPCQRVQPGKLRVQCSTCRQATLTLTQGPSCWDDVLIPNRMSGECQSPHCPGTSAEFFFKCGAHPTSDKETSVALHLIATNSRNITCITCTDVRSPVLVFQCNSRHVICLDCFHLYCVTRLNDRQFVHDPQLGYSLPCVAGCPNSLIKELHHFRILGEEQYNRYQQYGAEECVLQMGGVLCPRPGCGAGLLPEPDQRKVTCEGGNGLGCGFAFCRECKEAYHEGECSAVFEASGTTTQAYRVDERAAEQARWEAASKETIKKTTKPCPRCHVPVEKNGGCMHMKCPQPQCRLEWCWNCGCEWNRVCMGDHWFDV
notes: Yeast two-hybrid bait expressed in yeast strain Y190; also called parkin bait
fold β-galactosidase activity over negative control vector pGBT9 [1]: ~30 fold
fold β-galactosidase activity over negative control vector pGBT9 [2]: ~20 fold
